The results in this text go back to the supplement of paper PMC9732359.

The nature of the series: protein stability index of a GFP-peptide fusion (yeast GPS) (PSI 1-4); higher = more stable; sorted into four equal gates, so the index is relative within each strain. In outline:
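Plasmids in a pooled yeast library fused tiled 17-residue yeast protein peptides downstream of GFP and also expressed Cherry. Mid-log cultures grown without leucine were sorted into four equal gates by GFP/Cherry fluorescence ratio. Each gate's plasmids were PCR-amplified and Illumina-sequenced, and reads were matched to strains by barcodes. The protein stability index is derived by multiplying each gate's read frequency by its gate number and summing the results.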

± gives the uncertainty stated by the source.

As for TTKILGDKILGNLYSKV [YML103C/NUP188], the protein stability index runs as follows: (doa10∆) 2.69 ± 0.079; (pdr5∆) 2.82 ± 0.08; (san1∆) 3.16 ± 0.058; (ubr1∆) 2.75 ± 0.051.

As to KLSKEERAARVAAKIAA [RPL5], the protein stability index was found to be 2.54 ± 0.13 (doa10∆), 2.93 ± 0.079 (pdr5∆), 2.49 ± 0.2 (san1∆) and 2.52 ± 0.078 (ubr1∆).

For the sequence EKTFLHLPCTIEAEEAE [RPN8], the protein stability index came out at 1.56 ± 0.078 (doa10∆), 2.05 ± 0.071 (pdr5∆), 2.48 ± 0.12 (san1∆) and 2.48 ± 0.07 (ubr1∆).

For EVLCSRIIEKSVRRSGA [RRP45], the protein stability index runs as follows: (doa10∆) 2.38 ± 0.066; (pdr5∆) 3.21 ± 0.076; (san1∆) 2.41 ± 0.1; (ubr1∆) 2.94 ± 0.1.

As to HQFHDILEEKTDLHLPK [NSL1], the protein stability index reads like this: (doa10∆) 2.35 ± 0.07; (pdr5∆) 2.29 ± 0.065; (san1∆) 2.27 ± 0.076; (ubr1∆) 2.38 ± 0.054.

The sequence ATSFSRKKARTFDSSWN [FAS2] had a protein stability index (doa10∆) of 2.22 ± 0.17, a protein stability index (pdr5∆) of 2.99 ± 0.18, a protein stability index (san1∆) of 2.65 ± 0.16 and a protein stability index (ubr1∆) of 3.05 ± 0.076.

As to AEEALEPSYIFEYLATV [PRE4], the protein stability index runs as follows: (doa10∆) 2.66 ± 0.059; (pdr5∆) 2.44 ± 0.067; (san1∆) 2.54 ± 0.061; (ubr1∆) 2.73 ± 0.045.

On to FRHFIGIKAKHDKNIQK [ISW2], for which the protein stability index runs as follows: (doa10∆) 2.68 ± 0.089; (pdr5∆) 2.6 ± 0.085; (san1∆) 2.48 ± 0.06; (ubr1∆) 2.51 ± 0.078.

In the case of SKSTSMKLSMPPEVTSS [POP1], the protein stability index reads like this: (doa10∆) 2.4 ± 0.053; (pdr5∆) 2.59 ± 0.062; (san1∆) 2.44 ± 0.057; (ubr1∆) 2.54 ± 0.035.

With ELKEITSLPDWCQEAFP [BRR2], the protein stability index came to 2.86 ± 0.069 (doa10∆), 2.73 ± 0.076 (pdr5∆), 3.11 ± 0.064 (san1∆) and 3.08 ± 0.046 (ubr1∆).

For ALFLSKINRPPVSVSRI [RPL18A], the protein stability index is, setting by setting: (doa10∆) 2.29 ± 0.14; (pdr5∆) 1.63 ± 0.076; (san1∆) 1.6 ± 0.14; (ubr1∆) 2.16 ± 0.16.

Sequence QLIKVAVHNGDRKHVAA [RPL9B] registered a protein stability index (doa10∆) of 2.09 ± 0.054, a protein stability index (pdr5∆) of 2.48 ± 0.059, a protein stability index (san1∆) of 2.28 ± 0.061 and a protein stability index (ubr1∆) of 2.65 ± 0.027.

Consider GNLSGKRVDFSGRTVIS [RPO31], for which the protein stability index by setting is: (doa10∆) 3 ± 0.073; (pdr5∆) 3.01 ± 0.081; (san1∆) 3.36 ± 0.073; (ubr1∆) 3.17 ± 0.089.

With HNLHPQIGQVPLAPAPI [SNF5], the protein stability index reads like this: (doa10∆) 2.54 ± 0.062; (pdr5∆) 2.23 ± 0.065; (san1∆) 2.56 ± 0.059; (ubr1∆) 2.76 ± 0.063.

Regarding LNRLLRLIVDPNIADYI [PRP8], the protein stability index was found to be 1.83 ± 0.057 (doa10∆), 1.93 ± 0.05 (pdr5∆), 1.64 ± 0.091 (san1∆) and 1.95 ± 0.044 (ubr1∆).

As for IFNSNKAKIIPGNGKHA [SIR4], the protein stability index is, setting by setting: (doa10∆) 2.34 ± 0.11; (pdr5∆) 3.13 ± 0.2; (san1∆) 1.9 ± 0.17; (ubr1∆) 2.2 ± 0.093.

For the sequence KDAVDYSKIPNILSNKP [RRP6], the protein stability index (doa10∆) is 1.51 ± 0.096, the protein stability index (pdr5∆) is 1.97 ± 0.093, the protein stability index (san1∆) is 1.58 ± 0.21 and the protein stability index (ubr1∆) worked out at 1.58 ± 0.049.

NAPTFNPKYDTSNASMN [YAR002W/NUP60]: the protein stability index came to 3.01 ± 0.046 (doa10∆), 3.08 ± 0.043 (pdr5∆), 2.9 ± 0.036 (san1∆) and 3.17 ± 0.046 (ubr1∆).

As to MSDSIISFAAFILADAG [RPP1B], the protein stability index was found to be 1.62 ± 0.069 (doa10∆), 1.35 ± 0.049 (pdr5∆), 1.31 ± 0.2 (san1∆) and 1.26 ± 0.057 (ubr1∆).

On to IPRTFRTPVPSTLMPGG [SNF5], for which the protein stability index runs as follows: (doa10∆) 2.68 ± 0.066; (pdr5∆) 2.18 ± 0.05; (san1∆) 2.44 ± 0.045; (ubr1∆) 2.65 ± 0.048.

LPHITQLEGFESRKAFF [RPB2] yielded a protein stability index (doa10∆) of 2.92 ± 0.082, a protein stability index (pdr5∆) of 2.96 ± 0.06, a protein stability index (san1∆) of 3.08 ± 0.052 and a protein stability index (ubr1∆) of 3.12 ± 0.041.

Sequence KKPLSMALNKVLITDHI [CDC53] displayed a protein stability index (doa10∆) of 1.93 ± 0.04, a protein stability index (pdr5∆) of 2.24 ± 0.038, a protein stability index (san1∆) of 2.18 ± 0.05 and a protein stability index (ubr1∆) of 2.12 ± 0.028.

As for KPLGPCDVFWVQKDTAI [POP1], the protein stability index by setting is: (doa10∆) 2.85 ± 0.07; (pdr5∆) 3.03 ± 0.069; (san1∆) 2.89 ± 0.06; (ubr1∆) 2.96 ± 0.054.

For FVSRIPIMFQDFDDSTA [IRR1], the protein stability index (doa10∆) was 2.1 ± 0.04, the protein stability index (pdr5∆) is 1.96 ± 0.042, the protein stability index (san1∆) turned out to be 1.69 ± 0.053 and the protein stability index (ubr1∆) amounted to 2 ± 0.03.
